Experimental data from article PMC6426937.

Biological target: Hsp82p (Saccharomyces cerevisiae Hsp90), N terminal 6xHis tag (Saccharomyces cerevisiae) (UniProt P02829)
Sequence (P02829 whole entry): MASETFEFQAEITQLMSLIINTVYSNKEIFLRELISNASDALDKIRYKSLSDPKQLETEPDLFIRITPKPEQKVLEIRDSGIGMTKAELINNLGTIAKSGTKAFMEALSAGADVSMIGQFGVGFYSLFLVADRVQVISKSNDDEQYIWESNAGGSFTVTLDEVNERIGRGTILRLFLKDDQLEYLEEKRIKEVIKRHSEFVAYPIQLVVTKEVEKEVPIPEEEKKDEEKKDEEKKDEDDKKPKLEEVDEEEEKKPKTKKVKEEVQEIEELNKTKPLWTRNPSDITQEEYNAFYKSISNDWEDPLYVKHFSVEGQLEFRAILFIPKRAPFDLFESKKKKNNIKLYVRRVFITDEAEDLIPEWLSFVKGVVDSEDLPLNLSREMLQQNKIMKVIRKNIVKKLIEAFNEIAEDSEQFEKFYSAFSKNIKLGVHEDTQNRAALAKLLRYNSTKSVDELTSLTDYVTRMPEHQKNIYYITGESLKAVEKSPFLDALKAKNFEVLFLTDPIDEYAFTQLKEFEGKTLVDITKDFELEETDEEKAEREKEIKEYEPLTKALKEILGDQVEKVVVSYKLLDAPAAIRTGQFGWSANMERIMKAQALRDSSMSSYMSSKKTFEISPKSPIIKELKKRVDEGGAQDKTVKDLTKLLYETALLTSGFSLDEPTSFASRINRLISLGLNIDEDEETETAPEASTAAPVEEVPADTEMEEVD

Row | apparent affinity (Kapp) from stimulation of the Hsp82p ATPase activity by increasing co-chaperone (1 µM Hsp82p, 2 mM ATP, ATP regenerating system) [µM] | Binder
1 | 0.44 | Aha1p^Δ11, C terminal 6xHis tag (domain or fragment) VDKNCIGWAKEYFKQKLVGVEAGSVKDKKYAKIKSVSSIEGDCEVNQRKGKVISLFDLKITVLIEGHVDSKDGSALPFEGSINVPEVAFDSEASSYQFDISIFKETSELSEAKPLIRSELLPKLRQIFQQFGKDLLATHGNDIQVPESQVKSNYTRGNQKSSFTEIKDSASKPKKNALPSSTSTSAPVSSTNKVPQNGSGNSTSIYLEPTFNVPSSELYETFLDKQRILAWTRSAQFFNSGPKLETKEKFELFGGNVISELVSCEKDKKLVFHWKLKDWSAPFNSTIEMTFHESQEFHETKLQVKWTGIPVGEEDRVRANFEEYYVRSIKLTFGFGAVL
2 | 1.24 | Aha1p, C terminal 6xHis tag (natural protein) MVVNNPNNWHWVDKNCIGWAKEYFKQKLVGVEAGSVKDKKYAKIKSVSSIEGDCEVNQRKGKVISLFDLKITVLIEGHVDSKDGSALPFEGSINVPEVAFDSEASSYQFDISIFKETSELSEAKPLIRSELLPKLRQIFQQFGKDLLATHGNDIQVPESQVKSNYTRGNQKSSFTEIKDSASKPKKNALPSSTSTSAPVSSTNKVPQNGSGNSTSIYLEPTFNVPSSELYETFLDKQRILAWTRSAQFFNSGPKLETKEKFELFGGNVISELVSCEKDKKLVFHWKLKDWSAPFNSTIEMTFHESQEFHETKLQVKWTGIPVGEEDRVRANFEEYYVRSIKLTFGFGAVL
